# Laboratory results taken from paper PMC11574045, “A cofactor-induced repressive type of transcription factor condensation can be induced by synthetic peptides to suppress tumorigenesis” (The EMBO Journal, 2024).
# B1: TSG101 (protein, UniProt Q99816 2-390, looked up)
# Tumor susceptibility gene 101 …: AVSESQLKKMVSKYKYRDLTVRETVNVITLYKDLKPVLDSYVFNDGSSRELMNLTGTIPVPYRGNTYNIPICLWLLDTYPYNPPICFVKPTSSMTIKTGKHVDANGKIYLPYLHEWKHPQSDLLGLIQVMIVVFGDEPPVFSRPISASYPPYQATGPPNTSYMPGMPGGISPYPSGYPPNPSGYPGCPYPPGGPYPATTSSQYPSQPPVTTVGPSRDGTISEDTIRASLISAVSDKLRWRMKEEMDRAQAELNALKRTEEDLKKGHQKLEEMVTRLDQEVAEVDKNIELLKKKDEELSSALEKMENQSENNDIDEVIIPTAPLYKQILNLYAEENAIEDTIFYLGEALRRGVIDLDVFLKHVRLLSRKQFQLRALMQKARKTAGLSDLY
# B2: TULP2 (protein, UniProt O00295 1-520, looked up)
# Tubby-related protein 2: MSQDNDTLMRDILGHELAAMRLQKLEQQRRLFEKKQRQKRQELLMVQANPDASPWLWRSCLREERLLGDRGLGNPFLRKKVSEAHLPSGIHSALGTVSCGGDGRGERGLPTPRTEAVFRNLGLQSPFLSWLPDNSDAELEEVSVENGSVSPPPFKQSPRIRRKGWQAHQRPGTRAEGESDSQDMGDAHKSPNMGPNPGMDGDCVYENLAFQKEEDLEKKREASESTGTNSSAAHNEELSKALKGEGGTDSDHMRHEASLAIRSPCPGLEEDMEAYVLRPALPGTMMQCYLTRDKHGVDKGLFPLYYLYLETSDSLQRFLLAGRKRRRSKTSNYLISLDPTHLSRDGDNFVGKVRSNVFSTKFTIFDNGVNPDREHLTRNTARIRQELGAVCYEPNVLGYLGPRKMTVILPGTNSQNQRINVQPLNEQESLLSRYQRGDKQGLLLLHNKTPSWDKENGVYTLNFHGRVTRASVKNFQIVDPKHQEHLVLQFGRVGPDTFTMDFCFPFSPLQAFSICLSSFN
# B3: TSHZ2 (protein, UniProt Q9NRE2 1-1034, looked up)
# Teashirt homolog 2: MPRRKQQAPKRAAGYAQEEQLKEEEEIKEEEEEEDSGSVAQLQGGNDTGTDEELETGPEQKGCFSYQNSPGSHLSNQDAENESLLSDASDQVSDIKSVCGRDASDKKAHTHVRLPNEAHNCMDKMTAVYANILSDSYWSGLGLGFKLSNSERRNCDTRNGSNKSDFDWHQDALSKSLQQNLPSRSVSKPSLFSSVQLYRQSSKMCGTVFTGASRFRCRQCSAAYDTLVELTVHMNETGHYQDDNRKKDKLRPTSYSKPRKRAFQDMDKEDAQKVLKCMFCGDSFDSLQDLSVHMIKTKHYQKVPLKEPVPTISSKMVTPAKKRVFDVNRPCSPDSTTGSFADSFSSQKNANLQLSSNNRYGYQNGASYTWQFEACKSQILKCMECGSSHDTLQQLTTHMMVTGHFLKVTSSASKKGKQLVLDPLAVEKMQSLSEAPNSDSLAPKPSSNSASDCTASTTELKKESKKERPEETSKDEKVVKSEDYEDPLQKPLDPTIKYQYLREEDLEDGSKGGGDILKSLENTVTTAINKAQNGAPSWSAYPSIHAAYQLSEGTKPPLPMGSQVLQIRPNLTNKLRPIAPKWKVMPLVSMPTHLAPYTQVKKESEDKDEAVKECGKESPHEEASSFSHSEGDSFRKSETPPEAKKTELGPLKEEEKLMKEGSEKEKPQPLEPTSALSNGCALANHAPALPCINPLSALQSVLNNHLGKATEPLRSPSCSSPSSSTISMFHKSNLNVMDKPVLSPASTRSASVSRRYLFENSDQPIDLTKSKSKKAESSQAQSCMSPPQKHALSDIADMVKVLPKATTPKPASSSRVPPMKLEMDVRRFEDVSSEVSTLHKRKGRQSNWNPQHLLILQAQFASSLFQTSEGKYLLSDLGPQERMQISKFTGLSMTTISHWLANVKYQLRKTGGTKFLKNMDKGHPIFYCSDCASQFRTPSTYISHLESHLGFQMKDMTRLSVDQQSKVEQEISRVSSAQRSPETIAAEEDTDSKFKCKLCCRTFVSKHAVKLHLSKTHSKSPEHHSQFVTDVDEE
# B4: TSHZ1 (protein, UniProt Q6ZSZ6 1-1077, looked up)
# Teashirt homolog 1: MPRRKQQAPRRSAAYVPEEELKAAEIDEEHVEDDGLSLDIQESEYMCNEETEIKEAQSYQNSPVSSATNQDAGYGSPFSESSDQLAHFKGSSSREEKEDPQCPDSVSYPQDSLAQIKAVYANLFSESCWSSLALDLKKSGSTTSTNDASQKESSAPTPTPPTCPVSTTGPTTSTPSTSCSSSTSHSSTTSTSSSSGYDWHQAALAKTLQQTSSYGLLPEPSLFSTVQLYRQNNKLYGSVFTGASKFRCKDCSAAYDTLVELTVHMNETGHYRDDNRDKDSEKTKRWSKPRKRSLMEMEGKEDAQKVLKCMYCGHSFESLQDLSVHMIKTKHYQKVPLKEPVPAITKLVPSTKKRALQDLAPPCSPEPAGMAAEVALSESAKDQKAANPYVTPNNRYGYQNGASYTWQFEARKAQILKCMECGSSHDTLQQLTAHMMVTGHFLKVTTSASKKGKQLVLDPVVEEKIQSIPLPPTTHTRLPASSIKKQPDSPAGSTTSEEKKEPEKEKPPVAGDAEKIKEESEDSLEKFEPSTLYPYLREEDLDDSPKGGLDILKSLENTVSTAISKAQNGAPSWGGYPSIHAAYQLPGTVKPLPAAVQSVQVQPSYAGGVKSLSSAEHNALLHSPGSLTPPPHKSNVSAMEELVEKVTGKVNIKKEERPPEKEKSSLAKAASPIAKENKDFPKTEEVSGKPQKKGPEAETGKAKKEGPLDVHTPNGTEPLKAKVTNGCNNLGIIMDHSPEPSFINPLSALQSIMNTHLGKVSKPVSPSLDPLAMLYKISNSMLDKPVYPATPVKQADAIDRYYYENSDQPIDLTKSKNKPLVSSVADSVASPLRESALMDISDMVKNLTGRLTPKSSTPSTVSEKSDADGSSFEEALDELSPVHKRKGRQSNWNPQHLLILQAQFASSLRETTEGKYIMSDLGPQERVHISKFTGLSMTTISHWLANVKYQLRRTGGTKFLKNLDTGHPVFFCNDCASQFRTASTYISHLETHLGFSLKDLSKLPLNQIQEQQNVSKVLTNKTLGPLGATEEDLGSTFQCKLCNRTFASKHAVKLHLSKTHGKSPEDHLIYVTELEKQ
# B5: TWIST1 (protein, UniProt Q15672 1-202, looked up)
# Twist-related protein 1: MMQDVSSSPVSPADDSLSNSEEEPDRQQPPSGKRGGRKRRSSRRSAGGGAGPGGAAGGGVGGGDEPGSPAQGKRGKKSAGCGGGGGAGGGGGSSSGGGSPQSYEELQTQRVMANVRERQRTQSLNEAFAALRKIIPTLPSDKLSKIQTLKLAARYIDFLYQVLQSDELDSKMASCSYVAHERLSYAFSVWRMEGAWSMSASH
# B6: TWIST2 (protein, UniProt Q8WVJ9 1-160, looked up)
# Twist-related protein 2: MEEGSSSPVSPVDSLGTSEEELERQPKRFGRKRRYSKKSSEDGSPTPGKRGKKGSPSAQSFEELQSQRILANVRERQRTQSLNEAFAALRKIIPTLPSDKLSKIQTLKLAARYIDFLYQVLQSDEMDNKMTSCSYVAHERLSYAFSVWRMEGAWSMSASH
# B7: TSC22D2 (protein, UniProt O75157 1-780, looked up)
# TSC22 domain family protein 2: MSKMPAKKKSCFQITSVTTAQVATSITEDTESLDDPDESRTEDVSSEIFDVSRATDYGPEEVCERSSSEETLNNVGDAETPGTVSPNLLLDGQLAAAAAAPANGGGVVSARSVSGALASTLAAAATSAPAPGAPGGPQLAGSSAGPVTAAPSQPPTTCSSRFRVIKLDHGSGEPYRRGRWTCMEYYERDSDSSVLTRSGDCIRHSSTFDQTAERDSGLGATGGSVVVVVASMQGAHGPESGTDSSLTAVSQLPPSEKMSQPTPAQPQSFSVGQPQPPPPPVGGAVAQSSAPLPPFPGAATGPQPMMAAAQPSQPQGAGPGGQTLPPTNVTLAQPAMSLPPQPGPAVGAPAAQQPQQFAYPQPQIPPGHLLPVQPSGQSEYLQQHVAGLQPPSPAQPSSTGAAASPATAATLPVGTGQNASSVGAQLMGASSQPSEAMAPRTGPAQGGQVAPCQPTGVPPATVGGVVQPCLGPAGAGQPQSVPPPQMGGSGPLSAVPGGPHAVVPGVPNVPAAVPAPSVPSVSTTSVTMPNVPAPLAQSQQLSSHTPVSRSSSIIQHVGLPLAPGTHSAPTSLPQSDLSQFQTQTQPLVGQVDDTRRKSEPLPQPPLSLIAENKPVVKPPVADSLANPLQLTPMNSLATSVFSIAIPVDGDEDRNPSTAFYQAFHLNTLKESKSLWDSASGGGVVAIDNKIEQAMDLVKSHLMYAVREEVEVLKEQIKELVERNSLLERENALLKSLSSNDQLSQLPTQQANPGSTSQQQAVIAQPPQPTQPPQQPNVSSA
# System: HEK293FT cells transfected with TF library
# Assay: Screening of TF condensates based on fluorescent puncta
# Format: cell-based
# Settings: Figure 1B numerical data; TF library screen, one value per transcriptional factor
# Outline: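 Puncta scoring used automated confocal imaging of fifty random fields per well, after anti-Flag or anti-GAL4 immunofluorescence (Alexa 488) in PFA-fixed cells. HEK293FT cells carried TF library plasmids delivered with PEI (1.6 μg/ml DNA). At 60 h they were switched for 12 h to glucose-containing or glucose-free medium.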
row,Molecule,Z score of condensed fraction
1,B1,0.9844
2,B2,-0.5004
3,B3,-1.212
4,B4,-1.076
5,B5,-0.8032
6,B6,-0.4698
7,B7,-1.109
